According to article doi:10.1101/2022.07.12.499507 (bioRxiv, 2022):

Target: T1, Eaf2 (Saccharomyces cerevisiae, UniProt P53201 1-476)
T1 sequence: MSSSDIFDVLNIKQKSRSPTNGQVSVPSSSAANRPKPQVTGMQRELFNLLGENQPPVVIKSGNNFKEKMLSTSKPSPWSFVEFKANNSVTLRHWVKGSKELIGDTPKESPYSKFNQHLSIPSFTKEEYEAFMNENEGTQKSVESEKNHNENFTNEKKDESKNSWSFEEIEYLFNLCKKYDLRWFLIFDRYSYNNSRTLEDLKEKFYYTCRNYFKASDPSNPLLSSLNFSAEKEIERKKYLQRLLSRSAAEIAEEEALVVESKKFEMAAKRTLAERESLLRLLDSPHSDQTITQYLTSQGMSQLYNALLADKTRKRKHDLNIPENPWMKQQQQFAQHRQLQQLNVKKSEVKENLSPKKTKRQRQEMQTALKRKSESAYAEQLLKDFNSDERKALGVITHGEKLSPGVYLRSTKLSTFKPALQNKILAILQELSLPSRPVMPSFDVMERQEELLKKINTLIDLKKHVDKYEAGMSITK
Assay: cross-linking

B1: Yaf9 (natural protein)
chain: MAPTISKRIKTLSVSRPIIYGNTAKKMGSVKPPNAPAEHTHLWTIFVRGPQNEDISYFIKKVVFKLHDTYPNPVRSIEAPPFELTETGWGEFDINIKVYFVEEANEKVLNFYHRLRLHPYANPVPNSDNGNEQNTTDHNSKDAEVSSVYFDEIVFNEPNEEFFKILMSRPGNLLPSNKTDDCVYSKQLEQEEIDRIEIGIEKVDKEIDELKQKLENLVKQEAINGS
Q: Does B1 bind?
A: Result: binds
